Results reported in US20120316071A1 (published 2012).

Legend:
[1] = molecular target: T1, rHuman HGF R/c-MET/Fc Chimera, CF (R&D Systems Cat#358-MT/CF) (human, UniProt P08581 25-932); assay: ECL Multispot (MSD), antigen spotted; Fab 50 (µM); blank 332; first of duplicates
T1 construct: Bought recombinant protein; also called HGF R/Fc; Fc part of the bought chimera not given

[2] = molecular target: T2, rHuman ErbB2/Fc Chimera, CF (R&D Systems Cat#1129-ER) (human, UniProt P04626 23-652); assay: as above
T2 construct: Bought recombinant protein; Fc part of the bought chimera not given

[3] = molecular target: T3, rHuman P-Cadherin/Fc Chimera, CF (R&D Systems Cat#861-PC) (human, UniProt P22223 108-654); assay: as above
T3 construct: Bought recombinant protein; Fc part of the bought chimera not given

[4] = molecular target: T4, Recombinant Human DLL4 (R&D Systems Cat#1506-D4/CF) (human, UniProt Q9NR61 27-529); assay: as above
T4 construct: Bought recombinant protein; also called delta-like protein 4; rHuman DLL4

[5] = molecular target: T5, rHuman EGF R/Fc Chimera, CF (R&D Systems Cat#344-ER) (human, UniProt P00533 25-645); assay: as above
T5 construct: Bought recombinant protein; Fc part of the bought chimera not given

[6] = molecular target: T6, rHuman IGF-1 sR, CF (R&D Systems Cat#391-GR) (human, UniProt P08069 31-932); assay: as above
T6 construct: Bought recombinant soluble receptor; also called insulin-like growth factor-1 soluble receptor

[7] = molecular target: T1, rHuman HGF R/c-MET/Fc Chimera, CF (R&D …); assay: ECL Multispot (MSD), antigen spotted; Fab 0.50 (µM); blank 95; first of duplicates
[8] = molecular target: T2, rHuman ErbB2/Fc Chimera, CF (R&D …); assay: as above
[9] = molecular target: T3, rHuman P-Cadherin/Fc Chimera, CF (R&D …); assay: as above
[10] = molecular target: T4, Recombinant Human DLL4 (R&D Systems …); assay: as above
[11] = molecular target: T5, rHuman EGF R/Fc Chimera, CF (R&D …); assay: as above
[12] = molecular target: T6, rHuman IGF-1 sR, CF (R&D Systems …); assay: as above
[13] = molecular target: T1, rHuman HGF R/c-MET/Fc Chimera, CF (R&D …); assay: ECL Multispot (MSD), antigen spotted; Fab 5 (µM); blank 102; first of duplicates
[14] = molecular target: T2, rHuman ErbB2/Fc Chimera, CF (R&D …); assay: as above
[15] = molecular target: T3, rHuman P-Cadherin/Fc Chimera, CF (R&D …); assay: as above
[16] = molecular target: T4, Recombinant Human DLL4 (R&D Systems …); assay: as above
[17] = molecular target: T5, rHuman EGF R/Fc Chimera, CF (R&D …); assay: as above
[18] = molecular target: T6, rHuman IGF-1 sR, CF (R&D Systems …); assay: as above
[19] = molecular target: T1, rHuman HGF R/c-MET/Fc Chimera, CF (R&D …); assay: ECL Multispot (MSD), antigen spotted; Fab 500 (µM); blank 570; first of duplicates
[20] = molecular target: T2, rHuman ErbB2/Fc Chimera, CF (R&D …); assay: as above
[21] = molecular target: T3, rHuman P-Cadherin/Fc Chimera, CF (R&D …); assay: as above
[22] = molecular target: T4, Recombinant Human DLL4 (R&D Systems …); assay: as above
[23] = molecular target: T5, rHuman EGF R/Fc Chimera, CF (R&D …); assay: as above
[24] = molecular target: T6, rHuman IGF-1 sR, CF (R&D Systems …); assay: as above

T1 sequence (P08581 25-932, change not shown): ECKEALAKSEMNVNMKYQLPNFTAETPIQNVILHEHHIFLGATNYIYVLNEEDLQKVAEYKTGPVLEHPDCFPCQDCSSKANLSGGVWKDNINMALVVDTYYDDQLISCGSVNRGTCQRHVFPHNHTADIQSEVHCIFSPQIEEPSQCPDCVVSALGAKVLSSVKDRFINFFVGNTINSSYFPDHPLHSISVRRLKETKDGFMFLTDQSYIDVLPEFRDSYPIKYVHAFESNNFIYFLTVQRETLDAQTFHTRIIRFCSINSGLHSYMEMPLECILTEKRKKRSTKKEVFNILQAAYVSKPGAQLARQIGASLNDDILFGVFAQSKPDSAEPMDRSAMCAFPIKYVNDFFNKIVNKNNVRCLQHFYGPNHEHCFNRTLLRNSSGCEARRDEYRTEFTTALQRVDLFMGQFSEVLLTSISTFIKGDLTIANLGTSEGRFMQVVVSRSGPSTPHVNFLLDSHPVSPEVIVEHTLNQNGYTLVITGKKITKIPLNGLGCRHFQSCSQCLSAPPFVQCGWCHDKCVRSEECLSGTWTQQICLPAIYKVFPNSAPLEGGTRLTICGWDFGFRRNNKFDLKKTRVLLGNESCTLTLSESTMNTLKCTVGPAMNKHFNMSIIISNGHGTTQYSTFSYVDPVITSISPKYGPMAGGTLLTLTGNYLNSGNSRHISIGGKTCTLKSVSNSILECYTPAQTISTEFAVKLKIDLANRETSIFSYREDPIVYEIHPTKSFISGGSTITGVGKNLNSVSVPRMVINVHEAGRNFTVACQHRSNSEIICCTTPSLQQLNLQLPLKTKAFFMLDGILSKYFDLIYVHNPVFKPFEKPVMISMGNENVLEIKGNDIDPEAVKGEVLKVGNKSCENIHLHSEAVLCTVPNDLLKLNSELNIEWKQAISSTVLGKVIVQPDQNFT

- ECL signal [1]: 368
- ECL signal [2]: 394
- ECL signal [3]: 349
- ECL signal [4]: 79400
- ECL signal [5]: 452
- ECL signal [6]: 283
- ECL signal [7]: 104
- ECL signal [8]: 130
- ECL signal [9]: 106
- ECL signal [10]: 8320
- ECL signal [11]: 137
- ECL signal [12]: 94
- ECL signal [13]: 208
- ECL signal [14]: 225
- ECL signal [15]: 290
- ECL signal [16]: 76300
- ECL signal [17]: 229
- ECL signal [18]: 232
- ECL signal [19]: 945
- ECL signal [20]: 908
- ECL signal [21]: 1010
- ECL signal [22]: 26900
- ECL signal [23]: 2410
- ECL signal [24]: 722
B1: Fab VH1-46_IGHD6-6*01_IGHJ1*01 S102A/S103P/S104F/H111F (APFF) & L6_IGKJ1*01 (Fab, V domains shown)
VH: QVQLVQSGAEVKKPGASVKVSCKASGYTFTSYYMHWVRQAPGQGLEWMGIINPSGGSTSYAQKFQGRVTMTRDTSTSTVYMELSSLRSEDTAVYYCAREEYAPFSAEYFQFWGQGTLVTVSS
VL: not shown
notes: Tested as a Fab made in E. coli: VH cloned in Plasmid A (CH1 constant region, His6 and Flag tags), VL in Plasmid C (kappa constant region); also called H:APFF & L:wt
